B1: aNCL-CDR1 VHH (VHH)
VHH: QVQLQESGGGLVQPGGSLRLSCAASPQRRSARLSAWFRQAPGKEREFVARIYWSSGNTYYADSVKGRFAISRDIAKNTVDLTMNNLEPEDTAVYYCAARDGIPTSRSVESYNYWGQGTQVTVSS
notes: The entry is expected to hold leader peptide, His tag and HA tag like the others; also called aNCL-CDRl; a-NCL-CDRl VHH
B2: aNCL-CDR3 VHH (VHH)
VHH: QVQLQESGGGLVQPGGSLRLSCAASGRTFSDHSGYTYTIGWFRQAPGKEREFVARIYWSSGNTYYADSVKGRFAISRDIAKNTVDLTMNNLEPEDTAVYYCAAPQRRSARLSAWGQGTQVTVSS
notes: The entry holds leader peptide, His tag and HA tag; also called CDR3-grafted VHH; anti-nucleolin VHH
B3: aNCL-CDR1-L VHH (VHH)
VHH: QVQLQESGGGLVQPGGSLRLSCAASSGGGSPQRRSARLSASGGGSWFRQAPGKEREFVARIYWSSGNTYYADSVKGRFAISRDIAKNTVDLTMNNLEPEDTAVYYCAARDGIPTSRSVESYNYWGQGTQVTVSS
notes: The entry holds leader peptide, His tag and HA tag; also called aNCL-CDRl-L; CDR1-grafted VHH with SGGGS linkers
B4: aNCL-CDR3-L VHH (VHH)
VHH: QVQLQESGGGLVQPGGSLRLSCAASGRTFSDHSGYTYTIGWFRQAPGKEREFVARIYWSSGNTYYADSVKGRFAISRDIAKNTVDLTMNNLEPEDTAVYYCAASGGGSPQRRSARLSASGGGSWGQGTQVTVSS
notes: The entry holds leader peptide, His tag and HA tag; also called CDR3-grafted VHH with SGGGS linkers

target: T1, human recombinant TNF-a (human, UniProt P01375 77-233); test: ELISA, 200 ng human TNF-a coated, 100 pmol VHH, anti-HA-peroxidase detection
T1 construct: Coated at 200 ng per well in the ELISA; also called human TNF-a
T1 sequence (P01375 77-233 limits assumed): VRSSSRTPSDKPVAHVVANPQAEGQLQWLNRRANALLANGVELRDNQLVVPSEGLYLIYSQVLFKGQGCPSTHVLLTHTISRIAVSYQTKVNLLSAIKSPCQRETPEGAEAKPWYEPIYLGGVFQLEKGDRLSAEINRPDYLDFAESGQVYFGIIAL

| Binder | percent lower binding to TNF-a than the parental VHH [%] |
| --- | --- |
| B1 | ~40 |
| B2 | ~40 |
| B3 | ~40 |
| B4 | ~40 |

target: T2, human recombinant nucleolin (human, UniProt P19338 1-710, limits assumed); test: ELISA, 100 ng human nucleolin coated, 100 pmol VHH, anti-HA-peroxidase detection
T2 construct: also called human nucleolin
T2 sequence (P19338 whole entry, form in doubt): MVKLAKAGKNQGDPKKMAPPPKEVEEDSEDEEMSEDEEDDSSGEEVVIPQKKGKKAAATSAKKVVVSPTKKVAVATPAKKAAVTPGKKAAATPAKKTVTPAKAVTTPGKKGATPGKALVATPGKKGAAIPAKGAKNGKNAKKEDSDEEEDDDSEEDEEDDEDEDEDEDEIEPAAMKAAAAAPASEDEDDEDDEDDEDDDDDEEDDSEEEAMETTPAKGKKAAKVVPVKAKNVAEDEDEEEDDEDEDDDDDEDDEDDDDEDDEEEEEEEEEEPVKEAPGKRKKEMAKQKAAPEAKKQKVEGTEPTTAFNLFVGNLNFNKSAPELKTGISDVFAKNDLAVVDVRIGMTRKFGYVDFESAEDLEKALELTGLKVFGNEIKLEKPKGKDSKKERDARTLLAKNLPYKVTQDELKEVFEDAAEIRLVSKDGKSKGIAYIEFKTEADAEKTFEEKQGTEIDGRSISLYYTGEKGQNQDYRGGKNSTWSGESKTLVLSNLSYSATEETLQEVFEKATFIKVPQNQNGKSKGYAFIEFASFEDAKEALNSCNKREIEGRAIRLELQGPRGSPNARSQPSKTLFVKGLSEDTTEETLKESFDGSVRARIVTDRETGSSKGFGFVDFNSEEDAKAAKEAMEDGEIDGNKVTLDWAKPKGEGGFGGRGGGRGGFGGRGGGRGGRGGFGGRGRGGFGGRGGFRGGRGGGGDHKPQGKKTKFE

| Binder | fold increased nucleolin binding relative to the parental VHH [fold] |
| --- | --- |
| B1 | 2 |
| B2 | 3 |
| B3 | 2 |
| B4 | 3 |

Reference: patent publication WO2019016784A1 (dated 2019)
